Drawing on article PMC8000184, “Structural Insights into a Bifunctional Peptide Methionine Sulfoxide Reductase MsrA/B Fusion Protein from Helicobacter pylori” (Antioxidants, 2021), this text covers Km, kcat and kcat/Km for one substance.

Data set [1] concerns CN(C)c1ccc(N=Nc2ccc(S(=O)(=O)N[C@@H](CC[S@+](C)[O-])C(=O)O)cc2)cc1. Description: DTT-dependent HPLC assay of dabsyl-Met. In kind it is biochemical, Helicobacter pylori. The following applies: 20 mM DTT, 50 mM sodium phosphate pH 7.5, 50 mM NaCl, 37 °C, Met-S-O, methods dabsyl-Met-S-O, MsrA site.
The subject of data set [2] is CN(C)c1ccc(N=Nc2ccc(S(=O)(=O)N[C@@H](CC[S@@+](C)[O-])C(=O)O)cc2)cc1. Description: DTT-dependent HPLC assay of dabsyl-Met. In kind it is biochemical, Helicobacter pylori. Conditions: 20 mM DTT, 50 mM sodium phosphate pH 7.5, 50 mM NaCl, 37 °C, Met-R-O, methods dabsyl-Met-R-O, MsrB site.

One may read the Km as the concentration of substrate that gives half-maximal velocity. For orientation: kcat means the maximal rate divided by the concentration of active sites. In general, kcat/Km refers to the second-order rate constant that governs catalysis at low substrate concentration. “HpMsrAB (WT) (Helicobacter pylori 26695)”: in data set [1], the Km is 170 ± 60 µM, the kcat was 0.17 ± 0.0217 s⁻¹ and the kcat/Km is 1000 ± 117 M⁻¹ s⁻¹. Also, in data set [2], the Km is 50 ± 20 µM, the kcat came to 0.157 ± 0.00667 s⁻¹ and the kcat/Km turned out to be 3130 ± 133 M⁻¹ s⁻¹.
